Publication PMC12480156, “From biophysical interaction to structural modeling: bi-terminal G and TGS domains drive rice OsYchF1-OsGAP1 complex formation” (Botanical Studies, 2025)
Blank lines part the entries; values can stand above or below the molecule they belong to.

Tests used:
[1] = molecular target: GST-OsGAP1 (rice (Oryza sativa)) (UniProt Q6YWF1); experiment: ITC; MicroCal ITC200; 400–500 µM (His)6-OsYchF1, its truncated derivatives or (His)6-tag in the syringe titrated into 20–30 µM GST-OsGAP1 or GST-tag in the chamber; 20 mM Tris-HCl pH 7.5, 20 mM NaCl, 1 mM DTT; 25 °C
GST-OsGAP1 = molecular target: T1, GST-OsGAP1 (rice (Oryza sativa), UniProt Q6YWF1 1-165); experiment: as above; conditions: both partners purified
T1 construct: also called GST-tagged OsGAP1; source: E. coli BL21 (DE3) pLysS, purified; not shown: GST, N-terminal, kept
T1 sequence (looked up): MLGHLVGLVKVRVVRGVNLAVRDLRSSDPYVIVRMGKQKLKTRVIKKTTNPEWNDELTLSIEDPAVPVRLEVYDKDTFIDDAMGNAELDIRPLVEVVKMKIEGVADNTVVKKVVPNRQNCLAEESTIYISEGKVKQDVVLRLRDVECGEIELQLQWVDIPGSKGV

Kd [1]: 103 µM
stoichiometry N [1]: 0.6
Molecule: full-length (His)6-OsYchF1 (from UniProt Q6Z1J6 1-394) (natural protein)

Kd [1]: 98.7 µM
dH [1]: -0.7 kcal/mol
stoichiometry N [1]: 0.2
Molecule: (His)6-OsYchF1 (No TGS domain) (from UniProt Q6Z1J6 1-302) (domain or fragment)

Kd (GST-OsGAP1): 5.1 ± 2.3 µM
dH (GST-OsGAP1): -3.4 ± 1.1 kcal/mol
stoichiometry N (GST-OsGAP1): 0.6 ± 0.1
B1: (His)6-OsYchF1 (TGS domain) (domain or fragment, rice (Oryza sativa), UniProt Q6Z1J6 303-394, looked up)
chain: HLIYFFTAGPDEVKCWQIRRQTKAPQAAGTIHTDFERGFICAEVMKFDDLKELGSESAVKAAGKYRQEGKTYVVQDGDIIFFKFNVSGGGKK
notes: OsYchF1, rice, TGS domain, aa 303-394; also called (His)6-TGS; source: E. coli BL21 (DE3) pLysS, purified; not shown: His6, N-terminal, kept; thioredoxin (Trx), N-terminal, kept; S-tag, N-terminal, kept

Kd (GST-OsGAP1): 11.9 ± 6.7 µM
dH (GST-OsGAP1): -2 ± 1.4 kcal/mol
stoichiometry N (GST-OsGAP1): 0.5 ± 0.7
B2: (His)6-OsYchF1 (G domain) (domain or fragment, rice (Oryza sativa), UniProt Q6Z1J6 1-128, looked up)
chain: MPPKASKKDAAPAERPILGRFSSHLKIGIVGLPNVGKSTFFNIVTKLSIPAENFPFCTIDPNEARVYVPDERFDWLCQLYKPKSEVSAYLEINDIAGLVRGAHAGEGLGNAFLSHIRAVDGIFHVLRA
notes: OsYchF1, rice, G domain, aa 1-128; also called (His)6-G; source: E. coli BL21 (DE3) pLysS, purified; not shown: His6, N-terminal, kept; thioredoxin (Trx), N-terminal, kept; S-tag, N-terminal, kept
